What was measured:
Assay in all cases: ITC
γHV68 M11 = target: T1, γHV68 M11 (murine γ-herpesvirus 68, UniProt P89884 1-136)
T1 sequence: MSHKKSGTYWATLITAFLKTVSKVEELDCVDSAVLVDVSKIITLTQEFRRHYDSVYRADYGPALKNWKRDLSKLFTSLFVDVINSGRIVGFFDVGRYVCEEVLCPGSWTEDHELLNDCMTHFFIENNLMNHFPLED

KSHV Bcl-2 = target: T2, KSHV Bcl-2 (Kaposi's sarcoma-associated HV, UniProt P90504)
T2 sequence: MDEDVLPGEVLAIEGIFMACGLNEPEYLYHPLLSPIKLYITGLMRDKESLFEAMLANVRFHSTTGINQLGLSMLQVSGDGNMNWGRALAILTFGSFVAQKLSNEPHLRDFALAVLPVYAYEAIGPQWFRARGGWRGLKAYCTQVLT

cellular Bcl-2 = cellular Bcl-2 (UniProt P10415 1-211)
Sequence of cellular Bcl-2 (P10415 1-211): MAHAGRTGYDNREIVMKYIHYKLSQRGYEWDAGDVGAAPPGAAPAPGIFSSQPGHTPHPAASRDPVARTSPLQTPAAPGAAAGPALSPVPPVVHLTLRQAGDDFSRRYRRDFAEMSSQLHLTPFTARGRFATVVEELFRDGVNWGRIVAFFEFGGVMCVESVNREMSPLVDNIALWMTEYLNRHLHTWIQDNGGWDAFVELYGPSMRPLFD

B1: MBP•Beclin 1(1–135)•His6 (domain or fragment, human, UniProt Q14457 1-135, looked up)
chain: MEGSKTSNNSTMQVSFVCQRCSQPLKLDTSFKILDRVTIQELTAPLLTTAQAKPGETQEEETNSGEEPFIETPRQDGVSRRFIPPARMMSTESANSFTLIGEASDGGTMENLSRRLKVTGDLFDIMSGQTDVDHP
- Kd (γHV68 M11): 0.2 µM
- Kd (KSHV Bcl-2): 54.2 µM
- Kd (cellular Bcl-2): 8.6 µM

Binder: DGGTMENLSRRLKVTGDLFDIMSGQT (peptide, UniProt Q14457 105-130, looked up) [Beclin 1 BH3 domain]
- Kd (γHV68 M11): 1.1 µM
- Kd (KSHV Bcl-2): 13.3 µM
- Kd (cellular Bcl-2): 8 µM

— PMC2755179 (Autophagy, 2008)
